Here are results for 1 molecule from patent US5993889A, “Trehalose phosphorylase, its preparation and use” (Kabushiki Kaisha Hayashibara Seibutsu Kagaku Kenkyujo, priority 1996, dated 1999).

Series [1] is described as follows: Trehalose phosphorylase activity assay (specific activity, influence of temperature and pH). The class given is biochemical. Here is the method:
(§1) The present trehalose phosphorylase activity is assayed as follows: Add 0.2 ml of an enzyme solution to 2 ml of 20 mM phosphate buffer (pH 7.0) containing 1.0 w/v % trehalose as a substrate, incubate the solution at 60° C. for 30 min, sample the reaction mixture in an amount of 0.5 ml, and incubate the sample at 100° C. for 10 min to suspend the enzymatic reaction. Add 0.5 ml of D-glucose oxidase/peroxidase reagent to the heated sample, stir the mixture, keep the mixture at 40° C. for 30 min, add 2.5 ml of 5-N hydrochloric acid, stir the resulting mixture, and measure the absorbance of the mixture at a wavelength of 525 nm. One unit of the enzyme activity is defined as the enzyme that forms one […] of D-glucose per one minute. The activity of maltose- and kojibiose-phosphorylases can be assayed similarly as the same assay as indicated above except that the trehalose as a substrate is respectively replaced with maltose and kojibiose.
The yield of the purified enzyme specimen, obtained by the above purification steps, was about 25% with respect to the enzyme activity of the supernatant of the disrupted cell suspension. […] Protein was quantified according to the Lowry method using calf serum albumin as a standard protein.
Influences of temperatures and pHs on the present trehalose phosphorylase activity were studied in accordance with the assay for enzyme activity. […] In both cases, the enzymatic reactions were suspended similarly as in the enzyme assay, followed by quantifying the formed glucose. […] The thermal stability of the enzyme was determined by incubating the enzyme dissolved in 10 mM phosphate buffer (pH 7.0) at a temperature of about 40-85° C. for one hour, cooling the incubated enzyme, and assaying for the residual enzyme activity according to the enzyme assay. The pH stability of the enzyme was determined by dissolving the enzyme in buffers with different pHs of about 4-10, keeping each enzyme solution at 4° C. for 24 hours, adjusting each solution to give a pH of 7.0, and assaying for the residual enzyme activity according to the enzyme assay. […]

Series [2] can be described thus: Thermal and pH stability of trehalose phosphorylase (residual enzyme activity). The class given is physicochemical. The procedure: as §1, with “The activity of maltose- and kojibiose-phosphorylases can be assayed similarly as the same assay as indicated above except that the trehalose as a substrate is respectively replaced with maltose and kojibiose.” left out
Influences of temperatures and pHs on the present trehalose phosphorylase activity were studied in accordance with the assay for enzyme activity. […] In both cases, the enzymatic reactions were suspended similarly as in the enzyme assay, followed by quantifying the formed glucose. […] The thermal stability of the enzyme was determined by incubating the enzyme dissolved in 10 mM phosphate buffer (pH 7.0) at a temperature of about 40-85° C. for one hour, cooling the incubated enzyme, and assaying for the residual enzyme activity according to the enzyme assay. […]

Series [3] can be described thus: Isoelectric point by polyacrylamide gel electrophoresis using ampholyte. The class given is physicochemical. The note with it: electrophoresis using 2 w/v % ampholyte.

B1: trehalose phosphorylase: novel thermostable trehalose phosphorylase purified from Thermoanaerobium brockii, ATCC 35047; amino acid sequence of SEQ ID NO:4 (protein)
chain: ANKTKKPIYPFEDWVIRETQFSIDTNYRNETIFTLANGYIGMRGTFEERYSGPKNTSFNGTYINGFYEIHDIVYPEGGYGFAKIGQTMLNVADSKIIKLYVDGEEFDLLQGKILFYERVLDMKKGFVERKVKWESPTGKILEVKIKRIVSLNRQHLAAISFTMQPVNFTGKIRFVSAIDGNVSNINDSEDVRVGSNLKGKVLKTIDKSVEGLKGWIVQKTQKSNFSYACAIDNVLVADSKYEVSNSLEEDGVKVIVDLEAEKGTSYTLNKFISYYTSKDFDENKLVALALEEIEKAKNDGFETIEKEQEEFLNSFWKDADVIIEGDKALQQGIRFNEFHLLQSVGRDGKTNIAAKGLTGGGYEGHYFWDSDIYIMPFFLYTKPEIAKALVMYRYNLLDAARSRAKELGHKGALYPWRTIDGPECSAYFPAGTAQYHINADIVYALKRYVEATNDVDFLYDYGCEILFETARFWEDLGAYIPLKGNKFCINCVTGPDEYTALVDNNAYTNYMAKMNLEYAYDIANKMKKEVPQKYQKVASKLNLKDEEIVAWKKAADNMYLPYSKELDIIPQDDSFLYKERITVDEIPEDQFPLLLHWHYLNIYRYQICKQPDVLLLMFLQREKFTKDELKKNYDYYEPITTHDSSLSPAIFSILANEIGYTDKAYKYFMMTARMDLDDYNDNVKDGIHAASMAGTWSAVVNGFGGMRVYTNELHFEPRLPKEWNLLSFNVRYKGRKINVKLTKENVVFALLEGEPIEIYYFDKKILLEKGEIK
Take B1: the “Optimum pH” value in series [1] (incubated at 60° C. for 30 min) is given as 7.0-7.5. Moreover, the Optimum temperature entry in series [1] (incubated at pH 7.0 for 30 min) is “about 70 °C”. The molecule also had a Specific activity in series [1] (purified enzyme specimen, trehalose substrate, 60° C., pH 7.0) of 78.2 units/mg protein. Besides, the Thermal stability result in series [2] (10 mM phosphate buffer pH 7.0, one hour) was “up to 60 °C”. For the same molecule, the pH stability in series [2] (4° C. for 24 hours) is 6.0-9.0. Also, the “Isoelectric point (pI)” value in series [3] stood at 5.4±0.5.
